This note sets out measurements from article PMC6399207.

Experiment [1] deals with Acinetobacter baumannii glutamate-1-semialdehyde-2,1-aminomutase (HemL), N-terminal His-tagged (Acinetobacter baumannii (strain ATCC 19606)). Description: SEC; individually purified protein alone; Superdex 200 10/300 GL, room temperature, 50 mM Na phosphate pH 8.0, 100 mM NaCl; calibrated with ferritin, aldolase, conalbumin, ovalbumin.
Experiment [2] addresses Acinetobacter baumannii glutamyl-tRNA reductase (HemA), N-terminal His-tagged (Acinetobacter baumannii (strain ATCC 19606)). Description: SEC; sample of AbHemA and AbHemL co-expressed (pET28hemL_(6xHis)-hemA_(6xHis)) and co-purified on NiNTA; Superdex 200 10/300 GL, room temperature, 0.5 mL/min, 50 mM Na phosphate pH 8.0, 100 mM NaCl; fractions checked by SDS-PAGE; also after 16 h at 4°C without or with 0.1 M sodium citrate, and of a sample grown and purified with citrate. For orientation: In gel filtration, larger molecules generally elute earlier.

For experiment [3] the target is unchanged. Kind of experiment: SEC; individually purified protein alone; Superdex 200 10/300 GL, room temperature, 50 mM Na phosphate pH 8.0, 100 mM NaCl; calibrated with ferritin, aldolase, conalbumin, ovalbumin.

Where “and” joins values, the source holds several entries; their conditions need not be identical. Identical values can stand only once.

“Acinetobacter baumannii glutamate-1-semialdehyde-2,1-aminomutase (HemL), N-terminal His-tagged (enzyme)” displayed a stoichiometry N in experiment [1] of 2. The substance also gave a fold increase of the 200 kDa complex fraction with 0.1 M sodium citrate against without citrate in experiment [2] of 4 fold.

“Acinetobacter baumannii glutamyl-tRNA reductase (HemA), N-terminal His-tagged (enzyme)”: the stoichiometry N in experiment [3] was 4 and 2.

What is called stoichiometry N is a count of units in the complex or per binding partner.
